*1 amine or outer side, *2 acyl side, *3 side chain or, on linkers, in order; H or OH if unused. Side-chain parts run from the residue outwards. The star is where a group is joined. C18 diacid = O=C(O)CCCCCCCCCCCCCCCCC(=O)*; γGlu = O=C(O)[C@H](CCC(=O)[*:2])N[*:1]; Isovaleryl = CC(C)CC(=O)*; AEEA = NCCOCCOCC(=O)O
T1: human neuropeptide Y2 receptor (human, UniProt P49146 1-381)
T1 construct: whole, on cells; also called hNPY2 receptor; hNPY2-R
T1 sequence (looked up): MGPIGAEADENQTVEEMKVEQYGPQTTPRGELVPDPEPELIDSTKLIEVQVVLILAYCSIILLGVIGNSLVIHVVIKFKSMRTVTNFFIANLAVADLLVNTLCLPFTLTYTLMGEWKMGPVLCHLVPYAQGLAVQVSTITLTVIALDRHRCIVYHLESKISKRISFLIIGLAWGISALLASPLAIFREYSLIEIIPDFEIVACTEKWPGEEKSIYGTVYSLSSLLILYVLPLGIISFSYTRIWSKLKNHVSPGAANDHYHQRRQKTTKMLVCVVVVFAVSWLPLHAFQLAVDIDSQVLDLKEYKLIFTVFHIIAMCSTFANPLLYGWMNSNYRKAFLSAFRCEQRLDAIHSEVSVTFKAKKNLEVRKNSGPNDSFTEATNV


Target: T1, human neuropeptide Y2 receptor
Test: radioligand competition (125I-PYY(1-36)), hNPY2R membranes
In short: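 Commercial human Y2 receptor membranes (0.5 μg protein/well) were incubated with peptide for 2 h at room temperature in 50 mM HEPES, 5 mM MgCl₂, 1 mM CaCl₂, pH 7.4, with 0.2% ovalbumin. Bound radioligand was separated on PEI-soaked GF/C filters and counted by scintillation, and IC₅₀ came from nonlinear sigmoidal regression.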

Binder | Ki [nM]
Isovaleryl-APEK([AEEA-AEEA-γGlu-C18 diacid])PEEDTAPEELQRYYVSLRHYYNWLTRQRY-NH2 (SMILES CC(C)CC(=O)N[C@@H](C)C(=O)N1CCC[C@H]1C(=O)N[C@@H](CCC(=O)O)C(=O)N[C@@H](CCCCNC(=O)COCCOCCNC(=O)COCCOCCNC(=O)CC[C@H](NC(=O)CCCCCCCCCCCCCCCCC(=O)O)C(=O)O)C(=O)N1CCC[C@H]1C(=O)N[C@@H](CCC(=O)O)C(=O)N[C@@H](CCC(=O)O)C(=O)N[C@@H](CC(=O)O)C(=O)N[C@H](C(=O)N[C@@H](C)C(=O)N1CCC[C@H]1C(=O)N[C@@H](CCC(=O)O)C(=O)N[C@@H](CCC(=O)O)C(=O)N[C@@H](CC(C)C)C(=O)N[C@@H](CCC(N)=O)C(=O)N[C@@H](CCCNC(=N)N)C(=O)N[C@@H](Cc1ccc(O)cc1)C(=O)N[C@@H](Cc1ccc(O)cc1)C(=O)N[C@H](C(=O)N[C@@H](CO)C(=O)N[C@@H](CC(C)C)C(=O)N[C@@H](CCCNC(=N)N)C(=O)N[C@@H](Cc1c[nH]cn1)C(=O)N[C@@H](Cc1ccc(O)cc1)C(=O)N[C@@H](Cc1ccc(O)cc1)C(=O)N[C@@H](CC(N)=O)C(=O)N[C@@H](Cc1c[nH]c2ccccc12)C(=O)N[C@@H](CC(C)C)C(=O)N[C@H](C(=O)N[C@@H](CCCNC(=N)N)C(=O)N[C@@H](CCC(N)=O)C(=O)N[C@@H](CCCNC(=N)N)C(=O)N[C@@H](Cc1ccc(O)cc1)C(N)=O)[C@@H](C)O)C(C)C)[C@@H](C)O) [Compound 212] | 20.3
Isovaleryl-APEK([AEEA-AEEA-γGlu-C18 diacid])PEEETSPEELQRYYVSLRHYYNWLTRQRY-NH2 (SMILES CC(C)CC(=O)N[C@@H](C)C(=O)N1CCC[C@H]1C(=O)N[C@@H](CCC(=O)O)C(=O)N[C@@H](CCCCNC(=O)COCCOCCNC(=O)COCCOCCNC(=O)CC[C@H](NC(=O)CCCCCCCCCCCCCCCCC(=O)O)C(=O)O)C(=O)N1CCC[C@H]1C(=O)N[C@@H](CCC(=O)O)C(=O)N[C@@H](CCC(=O)O)C(=O)N[C@@H](CCC(=O)O)C(=O)N[C@H](C(=O)N[C@@H](CO)C(=O)N1CCC[C@H]1C(=O)N[C@@H](CCC(=O)O)C(=O)N[C@@H](CCC(=O)O)C(=O)N[C@@H](CC(C)C)C(=O)N[C@@H](CCC(N)=O)C(=O)N[C@@H](CCCNC(=N)N)C(=O)N[C@@H](Cc1ccc(O)cc1)C(=O)N[C@@H](Cc1ccc(O)cc1)C(=O)N[C@H](C(=O)N[C@@H](CO)C(=O)N[C@@H](CC(C)C)C(=O)N[C@@H](CCCNC(=N)N)C(=O)N[C@@H](Cc1c[nH]cn1)C(=O)N[C@@H](Cc1ccc(O)cc1)C(=O)N[C@@H](Cc1ccc(O)cc1)C(=O)N[C@@H](CC(N)=O)C(=O)N[C@@H](Cc1c[nH]c2ccccc12)C(=O)N[C@@H](CC(C)C)C(=O)N[C@H](C(=O)N[C@@H](CCCNC(=N)N)C(=O)N[C@@H](CCC(N)=O)C(=O)N[C@@H](CCCNC(=N)N)C(=O)N[C@@H](Cc1ccc(O)cc1)C(N)=O)[C@@H](C)O)C(C)C)[C@@H](C)O) [Compound 213] | 6.54
Isovaleryl-APEK([AEEA-AEEA-γGlu-C18 diacid])PEEDASPAELQRYYVELRHYYNWLTRQRY-NH2 (SMILES CC(C)CC(=O)N[C@@H](C)C(=O)N1CCC[C@H]1C(=O)N[C@@H](CCC(=O)O)C(=O)N[C@@H](CCCCNC(=O)COCCOCCNC(=O)COCCOCCNC(=O)CC[C@H](NC(=O)CCCCCCCCCCCCCCCCC(=O)O)C(=O)O)C(=O)N1CCC[C@H]1C(=O)N[C@@H](CCC(=O)O)C(=O)N[C@@H](CCC(=O)O)C(=O)N[C@@H](CC(=O)O)C(=O)N[C@@H](C)C(=O)N[C@@H](CO)C(=O)N1CCC[C@H]1C(=O)N[C@@H](C)C(=O)N[C@@H](CCC(=O)O)C(=O)N[C@@H](CC(C)C)C(=O)N[C@@H](CCC(N)=O)C(=O)N[C@@H](CCCNC(=N)N)C(=O)N[C@@H](Cc1ccc(O)cc1)C(=O)N[C@@H](Cc1ccc(O)cc1)C(=O)N[C@H](C(=O)N[C@@H](CCC(=O)O)C(=O)N[C@@H](CC(C)C)C(=O)N[C@@H](CCCNC(=N)N)C(=O)N[C@@H](Cc1c[nH]cn1)C(=O)N[C@@H](Cc1ccc(O)cc1)C(=O)N[C@@H](Cc1ccc(O)cc1)C(=O)N[C@@H](CC(N)=O)C(=O)N[C@@H](Cc1c[nH]c2ccccc12)C(=O)N[C@@H](CC(C)C)C(=O)N[C@H](C(=O)N[C@@H](CCCNC(=N)N)C(=O)N[C@@H](CCC(N)=O)C(=O)N[C@@H](CCCNC(=N)N)C(=O)N[C@@H](Cc1ccc(O)cc1)C(N)=O)[C@@H](C)O)C(C)C) [Compound 215] | 0.48

More lines, in order of falling Ki, values ahead:

Ki [nM] | Binder
10.5 | Isovaleryl-APEK([AEEA-AEEA-γGlu-C18 diacid])IEEEASPEELQRYYVSLRHYYNWLTRQRY-NH2 (SMILES CC[C@H](C)[C@H](NC(=O)[C@H](CCCCNC(=O)COCCOCCNC(=O)COCCOCCNC(=O)CC[C@H](NC(=O)CCCCCCCCCCCCCCCCC(=O)O)C(=O)O)NC(=O)[C@H](CCC(=O)O)NC(=O)[C@@H]1CCCN1C(=O)[C@H](C)NC(=O)CC(C)C)C(=O)N[C@@H](CCC(=O)O)C(=O)N[C@@H](CCC(=O)O)C(=O)N[C@@H](CCC(=O)O)C(=O)N[C@@H](C)C(=O)N[C@@H](CO)C(=O)N1CCC[C@H]1C(=O)N[C@@H](CCC(=O)O)C(=O)N[C@@H](CCC(=O)O)C(=O)N[C@@H](CC(C)C)C(=O)N[C@@H](CCC(N)=O)C(=O)N[C@@H](CCCNC(=N)N)C(=O)N[C@@H](Cc1ccc(O)cc1)C(=O)N[C@@H](Cc1ccc(O)cc1)C(=O)N[C@H](C(=O)N[C@@H](CO)C(=O)N[C@@H](CC(C)C)C(=O)N[C@@H](CCCNC(=N)N)C(=O)N[C@@H](Cc1c[nH]cn1)C(=O)N[C@@H](Cc1ccc(O)cc1)C(=O)N[C@@H](Cc1ccc(O)cc1)C(=O)N[C@@H](CC(N)=O)C(=O)N[C@@H](Cc1c[nH]c2ccccc12)C(=O)N[C@@H](CC(C)C)C(=O)N[C@H](C(=O)N[C@@H](CCCNC(=N)N)C(=O)N[C@@H](CCC(N)=O)C(=O)N[C@@H](CCCNC(=N)N)C(=O)N[C@@H](Cc1ccc(O)cc1)C(N)=O)[C@@H](C)O)C(C)C) [Compound 210]
8.07 | Isovaleryl-APEK([AEEA-AEEA-γGlu-C18 diacid])PEEDSEPEELQRYYVSLRHYYNWLTRQRY-NH2 (SMILES CC(C)CC(=O)N[C@@H](C)C(=O)N1CCC[C@H]1C(=O)N[C@@H](CCC(=O)O)C(=O)N[C@@H](CCCCNC(=O)COCCOCCNC(=O)COCCOCCNC(=O)CC[C@H](NC(=O)CCCCCCCCCCCCCCCCC(=O)O)C(=O)O)C(=O)N1CCC[C@H]1C(=O)N[C@@H](CCC(=O)O)C(=O)N[C@@H](CCC(=O)O)C(=O)N[C@@H](CC(=O)O)C(=O)N[C@@H](CO)C(=O)N[C@@H](CCC(=O)O)C(=O)N1CCC[C@H]1C(=O)N[C@@H](CCC(=O)O)C(=O)N[C@@H](CCC(=O)O)C(=O)N[C@@H](CC(C)C)C(=O)N[C@@H](CCC(N)=O)C(=O)N[C@@H](CCCNC(=N)N)C(=O)N[C@@H](Cc1ccc(O)cc1)C(=O)N[C@@H](Cc1ccc(O)cc1)C(=O)N[C@H](C(=O)N[C@@H](CO)C(=O)N[C@@H](CC(C)C)C(=O)N[C@@H](CCCNC(=N)N)C(=O)N[C@@H](Cc1c[nH]cn1)C(=O)N[C@@H](Cc1ccc(O)cc1)C(=O)N[C@@H](Cc1ccc(O)cc1)C(=O)N[C@@H](CC(N)=O)C(=O)N[C@@H](Cc1c[nH]c2ccccc12)C(=O)N[C@@H](CC(C)C)C(=O)N[C@H](C(=O)N[C@@H](CCCNC(=N)N)C(=O)N[C@@H](CCC(N)=O)C(=O)N[C@@H](CCCNC(=N)N)C(=O)N[C@@H](Cc1ccc(O)cc1)C(N)=O)[C@@H](C)O)C(C)C) [Compound 209]
3.8 | Isovaleryl-APEK([AEEA-AEEA-γGlu-C18 diacid])PEEDASEEETQRYYVSLRHYYNWLTRQRY-NH2 (SMILES CC(C)CC(=O)N[C@@H](C)C(=O)N1CCC[C@H]1C(=O)N[C@@H](CCC(=O)O)C(=O)N[C@@H](CCCCNC(=O)COCCOCCNC(=O)COCCOCCNC(=O)CC[C@H](NC(=O)CCCCCCCCCCCCCCCCC(=O)O)C(=O)O)C(=O)N1CCC[C@H]1C(=O)N[C@@H](CCC(=O)O)C(=O)N[C@@H](CCC(=O)O)C(=O)N[C@@H](CC(=O)O)C(=O)N[C@@H](C)C(=O)N[C@@H](CO)C(=O)N[C@@H](CCC(=O)O)C(=O)N[C@@H](CCC(=O)O)C(=O)N[C@@H](CCC(=O)O)C(=O)N[C@H](C(=O)N[C@@H](CCC(N)=O)C(=O)N[C@@H](CCCNC(=N)N)C(=O)N[C@@H](Cc1ccc(O)cc1)C(=O)N[C@@H](Cc1ccc(O)cc1)C(=O)N[C@H](C(=O)N[C@@H](CO)C(=O)N[C@@H](CC(C)C)C(=O)N[C@@H](CCCNC(=N)N)C(=O)N[C@@H](Cc1c[nH]cn1)C(=O)N[C@@H](Cc1ccc(O)cc1)C(=O)N[C@@H](Cc1ccc(O)cc1)C(=O)N[C@@H](CC(N)=O)C(=O)N[C@@H](Cc1c[nH]c2ccccc12)C(=O)N[C@@H](CC(C)C)C(=O)N[C@H](C(=O)N[C@@H](CCCNC(=N)N)C(=O)N[C@@H](CCC(N)=O)C(=O)N[C@@H](CCCNC(=N)N)C(=O)N[C@@H](Cc1ccc(O)cc1)C(N)=O)[C@@H](C)O)C(C)C)[C@@H](C)O) [Compound 208]
